Measurements published in PMC2656773 (Neuron, 2009).

Target: the molecule itself
Test: non-reducing SDS-PAGE

B1: His-tagged Snapin wild-type (natural protein, UniProt Q9Z266 1-136, looked up)
chain: MAAAGSAAVSGAGTPVAGPTGRDLFAEGLLEFLRPAVQQLDSHVHAVRESQVELREQIDNLATELCRINEDQKVALDLDPYVKKLLNARRRVVLVNNILQNAQERLRRLNHSVAKETARRRAMLDSGVYPPGSPSK
stoichiometry N: 2
